Experimental data taken from the supplement of paper PMC10065799, “High-throughput profiling of sequence recognition by tyrosine kinases and SH2 domains using bacterial peptide display” (eLife, 2023).

tested on: AncSZ; experiment: phosphorylation enrichment, bacterial display (enrichment ratio); higher = better substrate or ligand; peptides without Tyr show the background
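Also: 11-residue human phosphosite peptides and single-mutation variants displayed on the E. coli surface, counted by deep sequencing, each peptide's frequency after selection divided by its frequency in the unselected input library; frequency after pTyr selection over input frequency; kinase dosed for 20-30% of maximal phosphorylation in three min.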

| Sequence | phosphorylation enrichment |
| --- | --- |
| RNFGTYTAGLS [RHBDD1_Y264_D262G_YF] | 0.702 |
| LERYIYNRQEF [HLA-DPB1_Y59_E62Q] | 1.05 |
| YASALYGQRRS [FGF11_Y162_R163G] | 0.633 |
| VMIFAYLLHRG [PTEN_Y138_C136Y_YF] | 0.807 |
| FHKALYTVRTF [PDE6C_Y266_S270T_YF] | 0.914 |
| SFPPTYRYERG [INPPL1_Y661] | 0.73 |
| KDFETYQPFQN [CTNND2_Y1157_YF] | 1.13 |
| PGLSSYGVPAS [FLNB_Y1530] | 0.677 |
| KYACSYTPVKA [FLNB_Y708_T703K] | 0.689 |
| KYLENYLNRLL [PLD2_Y169] | 0.832 |
| TKLKDYYIFNK [CCDC42_Y149_A144T] | 1.02 |
| FAGRDYSLDEF [MYOF_Y1705_G1701A_YF] | 0.986 |
| IVRSLYEDLED [VHL_Y185] | 1.19 |
| QRALLYEDALY [UNC13D_Y56] | 2.17 |
| NCLRVYVAGRF [CRB1_Y711_E710V] | 1.71 |
| LGEGSYGKVKE [STK11_Y60] | 1.75 |
| GSESDYIVMPN [SCARB1_Y133] | 2.88 |

| Sequence | phosphorylation enrichment |
| --- | --- |
| YLNSSYINIST [IL23R_Y178_T175N] | 0.875 |
| TTPAVYARVTK [CTRB2_Y246_A250T] | 0.443 |
| EHFSFYGMKAV [SLC15A2_Y61_R57H_YF] | 0.868 |
| PLLLSYYLIKW [NUP160_Y773] | 1.33 |
| VVHGSYDEIEG [SEC24A_Y263_S261G] | 0.914 |
| FLAVGDHKPHI [IDS_Y225_Y225D] | 0.431 |
| REIIAYQPYGK [PRKCG_Y529_P524R] | 0.83 |
| FDNPVCQKTTE [LDLR_Y828_Y828C] | 1.1 |
| NKKYHYRELPV [ERN2_Y860_H858Y] | 0.456 |
| IKNPQYFSDAC [NTRK1_Y496_E492K] | 0.648 |
| CTTIDYNYMCN [TP53_Y234_H233D] | 1.3 |
| VLALWYYYLTN [ZDHHC23_Y127_H132N] | 1.29 |
| SIIKDYFHRGA [GATM_Y203] | 0.579 |
| VGEGPYLLSDL [ABCC12_Y7_I9L] | 0.839 |
| CATIHYNFMCN [TP53_Y234_T230A_YF] | 0.993 |
| VFPATYHPDHW [EFCAB12_Y544_YF] | 0.677 |

biological target: EPHB1 (UniProt P54762); experiment: as above
Sequence (P54762 whole entry, looked up): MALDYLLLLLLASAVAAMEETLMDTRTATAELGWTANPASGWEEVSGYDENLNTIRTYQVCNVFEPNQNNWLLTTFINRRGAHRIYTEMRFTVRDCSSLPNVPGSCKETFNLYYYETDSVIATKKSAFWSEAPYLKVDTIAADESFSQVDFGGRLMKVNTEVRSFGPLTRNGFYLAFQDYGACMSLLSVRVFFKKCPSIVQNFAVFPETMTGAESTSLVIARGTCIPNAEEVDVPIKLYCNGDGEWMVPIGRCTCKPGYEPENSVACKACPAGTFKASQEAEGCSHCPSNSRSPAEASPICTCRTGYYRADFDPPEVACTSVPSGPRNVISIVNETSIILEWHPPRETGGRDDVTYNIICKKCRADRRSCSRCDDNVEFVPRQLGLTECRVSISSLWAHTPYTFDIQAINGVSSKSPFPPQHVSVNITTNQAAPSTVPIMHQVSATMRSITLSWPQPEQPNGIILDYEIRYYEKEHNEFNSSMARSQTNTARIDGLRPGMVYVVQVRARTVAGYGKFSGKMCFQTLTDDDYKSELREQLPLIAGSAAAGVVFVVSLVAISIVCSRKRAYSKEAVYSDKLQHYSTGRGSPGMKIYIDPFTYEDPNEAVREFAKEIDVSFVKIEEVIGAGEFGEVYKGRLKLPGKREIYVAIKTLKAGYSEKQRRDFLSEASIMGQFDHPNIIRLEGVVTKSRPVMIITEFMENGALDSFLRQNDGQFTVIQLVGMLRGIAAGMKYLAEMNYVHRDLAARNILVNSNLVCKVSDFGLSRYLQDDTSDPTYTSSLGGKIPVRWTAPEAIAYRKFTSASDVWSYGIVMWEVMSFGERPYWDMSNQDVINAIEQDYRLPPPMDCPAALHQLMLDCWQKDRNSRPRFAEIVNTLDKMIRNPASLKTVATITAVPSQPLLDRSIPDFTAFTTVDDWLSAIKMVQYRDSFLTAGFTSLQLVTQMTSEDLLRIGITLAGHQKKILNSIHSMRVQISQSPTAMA

| Sequence | phosphorylation enrichment |
| --- | --- |
| RNFGTYTAGLS [RHBDD1_Y264_D262G_YF] | 0.377 |
| LERYIYNRQEF [HLA-DPB1_Y59_E62Q] | 0.475 |
| YASALYGQRRS [FGF11_Y162_R163G] | 0.391 |
| VMIFAYLLHRG [PTEN_Y138_C136Y_YF] | 0.447 |
| FHKALYTVRTF [PDE6C_Y266_S270T_YF] | 0.567 |
| SFPPTYRYERG [INPPL1_Y661] | 0.362 |
| KDFETYQPFQN [CTNND2_Y1157_YF] | 0.69 |
| PGLSSYGVPAS [FLNB_Y1530] | 0.543 |
| KYACSYTPVKA [FLNB_Y708_T703K] | 0.473 |
| KYLENYLNRLL [PLD2_Y169] | 0.523 |
| TKLKDYYIFNK [CCDC42_Y149_A144T] | 0.811 |
| FAGRDYSLDEF [MYOF_Y1705_G1701A_YF] | 0.433 |
| IVRSLYEDLED [VHL_Y185] | 0.584 |
| QRALLYEDALY [UNC13D_Y56] | 12.3 |
| NCLRVYVAGRF [CRB1_Y711_E710V] | 0.497 |
| LGEGSYGKVKE [STK11_Y60] | 1.29 |
| GSESDYIVMPN [SCARB1_Y133] | 8.5 |

| Sequence | phosphorylation enrichment |
| --- | --- |
| YLNSSYINIST [IL23R_Y178_T175N] | 0.525 |
| TTPAVYARVTK [CTRB2_Y246_A250T] | 0.665 |
| EHFSFYGMKAV [SLC15A2_Y61_R57H_YF] | 0.498 |
| PLLLSYYLIKW [NUP160_Y773] | 1.14 |
| VVHGSYDEIEG [SEC24A_Y263_S261G] | 0.424 |
| FLAVGDHKPHI [IDS_Y225_Y225D] | 0.375 |
| REIIAYQPYGK [PRKCG_Y529_P524R] | 0.429 |
| FDNPVCQKTTE [LDLR_Y828_Y828C] | 0.485 |
| NKKYHYRELPV [ERN2_Y860_H858Y] | 0.361 |
| IKNPQYFSDAC [NTRK1_Y496_E492K] | 0.37 |
| CTTIDYNYMCN [TP53_Y234_H233D] | 0.715 |
| VLALWYYYLTN [ZDHHC23_Y127_H132N] | 1.1 |
| SIIKDYFHRGA [GATM_Y203] | 0.376 |
| VGEGPYLLSDL [ABCC12_Y7_I9L] | 0.461 |
| CATIHYNFMCN [TP53_Y234_T230A_YF] | 0.68 |
| VFPATYHPDHW [EFCAB12_Y544_YF] | 0.678 |

biological target: EPHB2 (UniProt P29323); experiment: as above
Sequence (P29323 whole entry, looked up): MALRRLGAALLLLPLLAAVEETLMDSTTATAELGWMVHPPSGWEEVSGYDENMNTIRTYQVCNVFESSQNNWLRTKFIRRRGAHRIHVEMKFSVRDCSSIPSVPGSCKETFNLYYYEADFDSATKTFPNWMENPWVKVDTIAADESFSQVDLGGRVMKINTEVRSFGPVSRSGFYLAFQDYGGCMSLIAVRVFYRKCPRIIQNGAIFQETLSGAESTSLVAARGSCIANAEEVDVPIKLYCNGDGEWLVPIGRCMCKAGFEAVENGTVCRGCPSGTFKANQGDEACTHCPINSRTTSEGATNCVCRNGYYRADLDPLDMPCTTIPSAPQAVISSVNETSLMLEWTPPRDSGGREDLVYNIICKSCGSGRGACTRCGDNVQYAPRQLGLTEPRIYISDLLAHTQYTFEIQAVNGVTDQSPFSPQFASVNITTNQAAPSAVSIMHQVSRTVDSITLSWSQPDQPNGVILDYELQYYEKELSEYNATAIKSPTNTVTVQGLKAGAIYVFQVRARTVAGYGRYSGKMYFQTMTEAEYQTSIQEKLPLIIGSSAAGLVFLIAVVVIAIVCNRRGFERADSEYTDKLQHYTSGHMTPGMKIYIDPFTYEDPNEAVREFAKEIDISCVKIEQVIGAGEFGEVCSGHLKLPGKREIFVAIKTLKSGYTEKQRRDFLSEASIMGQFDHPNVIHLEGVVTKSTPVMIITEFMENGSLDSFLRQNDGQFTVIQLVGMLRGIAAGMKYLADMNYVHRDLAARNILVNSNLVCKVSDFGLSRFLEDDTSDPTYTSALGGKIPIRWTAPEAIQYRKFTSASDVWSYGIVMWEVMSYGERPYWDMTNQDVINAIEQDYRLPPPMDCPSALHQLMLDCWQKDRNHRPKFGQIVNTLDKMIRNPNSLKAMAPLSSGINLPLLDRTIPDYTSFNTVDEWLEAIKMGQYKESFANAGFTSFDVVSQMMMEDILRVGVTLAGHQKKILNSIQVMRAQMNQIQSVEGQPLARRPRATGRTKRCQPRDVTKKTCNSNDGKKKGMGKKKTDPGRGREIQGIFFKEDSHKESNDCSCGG

| Sequence | phosphorylation enrichment |
| --- | --- |
| RNFGTYTAGLS [RHBDD1_Y264_D262G_YF] | 0.477 |
| LERYIYNRQEF [HLA-DPB1_Y59_E62Q] | 0.856 |
| YASALYGQRRS [FGF11_Y162_R163G] | 0.384 |
| VMIFAYLLHRG [PTEN_Y138_C136Y_YF] | 0.392 |
| FHKALYTVRTF [PDE6C_Y266_S270T_YF] | 0.529 |
| SFPPTYRYERG [INPPL1_Y661] | 0.43 |
| KDFETYQPFQN [CTNND2_Y1157_YF] | 0.786 |
| PGLSSYGVPAS [FLNB_Y1530] | 0.435 |
| KYACSYTPVKA [FLNB_Y708_T703K] | 0.417 |
| KYLENYLNRLL [PLD2_Y169] | 0.483 |
| TKLKDYYIFNK [CCDC42_Y149_A144T] | 0.691 |
| FAGRDYSLDEF [MYOF_Y1705_G1701A_YF] | 0.567 |
| IVRSLYEDLED [VHL_Y185] | 0.573 |
| QRALLYEDALY [UNC13D_Y56] | 12.3 |
| NCLRVYVAGRF [CRB1_Y711_E710V] | 0.627 |
| LGEGSYGKVKE [STK11_Y60] | 0.868 |
| GSESDYIVMPN [SCARB1_Y133] | 8.31 |

| Sequence | phosphorylation enrichment |
| --- | --- |
| YLNSSYINIST [IL23R_Y178_T175N] | 0.453 |
| TTPAVYARVTK [CTRB2_Y246_A250T] | 0.768 |
| EHFSFYGMKAV [SLC15A2_Y61_R57H_YF] | 0.601 |
| PLLLSYYLIKW [NUP160_Y773] | 0.947 |
| VVHGSYDEIEG [SEC24A_Y263_S261G] | 0.387 |
| FLAVGDHKPHI [IDS_Y225_Y225D] | 0.422 |
| REIIAYQPYGK [PRKCG_Y529_P524R] | 0.617 |
| FDNPVCQKTTE [LDLR_Y828_Y828C] | 0.653 |
| NKKYHYRELPV [ERN2_Y860_H858Y] | 0.278 |
| IKNPQYFSDAC [NTRK1_Y496_E492K] | 0.415 |
| CTTIDYNYMCN [TP53_Y234_H233D] | 0.643 |
| VLALWYYYLTN [ZDHHC23_Y127_H132N] | 0.851 |
| SIIKDYFHRGA [GATM_Y203] | 0.438 |
| VGEGPYLLSDL [ABCC12_Y7_I9L] | 0.559 |
| CATIHYNFMCN [TP53_Y234_T230A_YF] | 0.52 |
| VFPATYHPDHW [EFCAB12_Y544_YF] | 0.383 |

biological target: FGFR1 (UniProt P11362); experiment: as above
Sequence (P11362 whole entry, looked up): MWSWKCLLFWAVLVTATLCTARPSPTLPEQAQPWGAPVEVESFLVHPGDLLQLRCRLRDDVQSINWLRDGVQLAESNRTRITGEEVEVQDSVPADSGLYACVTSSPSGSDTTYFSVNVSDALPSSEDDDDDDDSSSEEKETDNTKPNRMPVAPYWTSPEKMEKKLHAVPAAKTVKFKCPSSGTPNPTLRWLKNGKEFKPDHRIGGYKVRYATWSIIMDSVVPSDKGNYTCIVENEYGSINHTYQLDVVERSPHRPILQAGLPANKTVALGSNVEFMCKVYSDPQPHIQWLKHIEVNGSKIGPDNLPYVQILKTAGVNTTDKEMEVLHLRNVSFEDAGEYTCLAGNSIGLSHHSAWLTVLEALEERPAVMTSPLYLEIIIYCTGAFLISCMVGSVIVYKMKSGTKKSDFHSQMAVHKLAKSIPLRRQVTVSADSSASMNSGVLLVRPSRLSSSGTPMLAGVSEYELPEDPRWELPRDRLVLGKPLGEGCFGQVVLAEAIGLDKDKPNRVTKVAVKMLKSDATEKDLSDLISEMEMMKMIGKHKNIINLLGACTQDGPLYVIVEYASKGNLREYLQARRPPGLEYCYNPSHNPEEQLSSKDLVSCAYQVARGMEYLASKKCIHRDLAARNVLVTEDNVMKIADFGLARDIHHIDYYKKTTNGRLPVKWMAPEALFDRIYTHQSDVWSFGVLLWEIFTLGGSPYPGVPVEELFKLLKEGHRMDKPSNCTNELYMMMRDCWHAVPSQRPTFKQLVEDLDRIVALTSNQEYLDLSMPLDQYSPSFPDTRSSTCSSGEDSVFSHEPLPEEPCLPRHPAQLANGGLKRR

| Sequence | phosphorylation enrichment |
| --- | --- |
| RNFGTYTAGLS [RHBDD1_Y264_D262G_YF] | 0.483 |
| LERYIYNRQEF [HLA-DPB1_Y59_E62Q] | 0.624 |
| YASALYGQRRS [FGF11_Y162_R163G] | 0.371 |
| VMIFAYLLHRG [PTEN_Y138_C136Y_YF] | 0.383 |
| FHKALYTVRTF [PDE6C_Y266_S270T_YF] | 0.582 |
| SFPPTYRYERG [INPPL1_Y661] | 0.498 |
| KDFETYQPFQN [CTNND2_Y1157_YF] | 0.54 |
| PGLSSYGVPAS [FLNB_Y1530] | 0.56 |
| KYACSYTPVKA [FLNB_Y708_T703K] | 0.576 |
| KYLENYLNRLL [PLD2_Y169] | 0.459 |
| TKLKDYYIFNK [CCDC42_Y149_A144T] | 4.92 |
| FAGRDYSLDEF [MYOF_Y1705_G1701A_YF] | 0.497 |
| IVRSLYEDLED [VHL_Y185] | 0.505 |
| QRALLYEDALY [UNC13D_Y56] | 0.861 |
| NCLRVYVAGRF [CRB1_Y711_E710V] | 0.447 |
| LGEGSYGKVKE [STK11_Y60] | 1.21 |
| GSESDYIVMPN [SCARB1_Y133] | 5.92 |

| Sequence | phosphorylation enrichment |
| --- | --- |
| YLNSSYINIST [IL23R_Y178_T175N] | 2.69 |
| TTPAVYARVTK [CTRB2_Y246_A250T] | 0.262 |
| EHFSFYGMKAV [SLC15A2_Y61_R57H_YF] | 0.441 |
| PLLLSYYLIKW [NUP160_Y773] | 4.29 |
| VVHGSYDEIEG [SEC24A_Y263_S261G] | 0.395 |
| FLAVGDHKPHI [IDS_Y225_Y225D] | 0.384 |
| REIIAYQPYGK [PRKCG_Y529_P524R] | 0.329 |
| FDNPVCQKTTE [LDLR_Y828_Y828C] | 0.57 |
| NKKYHYRELPV [ERN2_Y860_H858Y] | 0.316 |
| IKNPQYFSDAC [NTRK1_Y496_E492K] | 0.548 |
| CTTIDYNYMCN [TP53_Y234_H233D] | 0.957 |
| VLALWYYYLTN [ZDHHC23_Y127_H132N] | 8.15 |
| SIIKDYFHRGA [GATM_Y203] | 0.48 |
| VGEGPYLLSDL [ABCC12_Y7_I9L] | 0.484 |
| CATIHYNFMCN [TP53_Y234_T230A_YF] | 0.634 |
| VFPATYHPDHW [EFCAB12_Y544_YF] | 0.467 |
